The test system of test [1] is lipopolysaccharide (LPS)-induced lethal sepsis. The test can be described thus: Test Example 7: survival in LPS-induced lethal sepsis. The test is classed as in vivo, BALB/c mice. Here is the method:
BALB/c mice (bodyweight of 20 g to 30 g when starting the experiments, n=6) were raised in a plastic cage under SPF and thermo-hydrostat (22±1° C., 55±5%) conditions under 12-hour light-dark cycle. Foods and water were supplied ad libitum. Lipopolysaccharide (LPS)-induced lethal sepsis which is generally employed as an experimental sepsis model was induced by intraperitoneally administering LPS at a dose of 40 mg/kg. SSV mAb dissolved in physiological saline was intraperitoneally administered totally 3 times, i.e., at 30 minutes before, 6 hours after and 12 hours after the intraperitoneal administration of LPS, in an amount of 100 μg/dose in terms of the amount of SSV mAb. The survival of the animals thereafter was tested. To the control group, IgG (SIGMA) dissolved in physiological saline was administered in place of SSV mAb in the same manner.

For test [2] the test system is unchanged. The test can be described thus: Test Example 8-3: staining test of lung tissue. It counts as in vivo, BALB/c mice. As to conditions: after the end of Test Example 8. Here is the method: BALB/c mice (bodyweight of 20 g to 30 g when starting the experiments, n=10) were raised in a plastic cage under SPF and thermo-hydrostat (22±1° C., 55±5%) conditions under 12-hour light-dark cycle. Foods and water were supplied ad libitum. Then, by intraperitoneally administering LPS to the mice at a dose of 40 mg/kg, lipopolysaccharide (LPS)-induced lethal sepsis as an inflammatory disease was induced in the same manner as Test Example 7. SSV mAb dissolved in physiological saline was intraperitoneally administered totally 3 times, i.e., at 30 minutes before, 6 hours after and 12 hours after the intraperitoneal administration of LPS, in an amount of 100 μg/dose in terms of the amount of SSV mAb. The survival of the animals thereafter was tested. To the control group, IgG (SIGMA) dissolved in physiological saline was administered in place of SSV mAb in the same manner.
After the end of Test Example 8, lung tissue sections were each obtained from […] of control group and SSV mAb-administered group, and stained by using hematoxylin and eosin stain (from Wako Pure Chemical Industries, Ltd.) according to the method conducted by Hasegawa et al. (Surg Res. 2012 May 1; 174(1):136-41.). Next, micrographs of the obtained samples were taken.
As a reference, micrographs of lung tissue slices from healthy rats were taken in the same manner.

Test [3] has as its system CD3 positive T cells. The experiment in a line: Reactivity of the monoclonal antibody with T cells by flow cytometry (FACS). It counts as cell-based, C57BL/6 mouse. As to conditions: unstimulated T cells, 16G9 mAb compared with SSV mAb. Here is the method:
Using the following approach, spleen was removed from a C57BL/6 mouse (5 weeks old, female, CHARLES RIVER LABORATORIES JAPAN, INC.) to prepare whole splenic cells.
First, in a 5 ml culture dish (BD Bioscience FALCON 351007) into which 5 ml RPMI 1640 culture medium (Sigma-Aldrich, R-8758) was transferred, spleen was disentangled well with scissors for dissection and forceps to suspend the splenic cells, which were then transferred to a 15 ml centrifuge tube (BD Bioscience FALCON 352096). Then, the 5 ml dish was washed several times with phosphate-buffered saline (PBS, Invitrogen, 20012-027), and these were also added to the foregoing cell suspension and allowed to stand, and then the supernatant was collected in another 15 ml centrifuge tube. In addition, 5 ml RPMI 1640 culture medium was also added to the residual insoluble spleen tissue again and allowed to stand, and then only the supernatant was collected, which was combined with the above-mentioned cell suspension to perform centrifugation at 1,500 rpm for 5 min. To the collected cells, added was 2 ml lysis buffer (150 mM NH4Cl/15 mM NaHCO3/0.1 mM EDTA-Na2, pH 7.3) and hemolyzed by tapping, and then 10 ml PBS was added. After washed 3 times by centrifugation at 1,500 rpm for 5 min, whole splenic cells were obtained. […]
The reactivity of the above unstimulated with 16G9 mAb or SSV mAb was analyzed by flow cytometry (FACS). […]

B1: SSV mAb: monoclonal antibody (IgG1) produced by Mouse-Mouse hybridoma SSV-C 93-3 (NITE BP-972), raised against peptide … (SEQ ID NO:1)-KLH conjugate (antibody, V domains shown)
VH: EIQLQQSGAELVKPGASVKISCKASGYSFTGYNMNWVKQSHGKSLEWIGNINPYYGSTSYNQKFKGKATLTVDKSSSTAYMQLNSLTSEDSAVYYCARSPYYSNYWRYFDYWGQGTTLTVSS
VL: QIVLSQSPAILSASPGEKVTMTCRASSSVSYMHWYQQKPGSSPKPWIYATSNLASGVPARFSGSGSGTSYSLTISRVEAEDAATYYCQQWSSNPWTFGGGTKLEIK
Regarding B1, the cumulative survival rate in test [1] (70 hours after administration of LPS) was determined as 0.7. The molecule also returned a survival rate in test [1] (70 hours after administration of LPS 40 mg/kg i.p., 100 μg/dose i.p. 3 times) of 70%. In test [1] (70 hours after administration of LPS, p<0.05), the “survival rate relative to that of the control group” value is on record as “about 3.5 times”. In test [2], the “inflammation in lungs (hematoxylin and eosin stained lung tissue sections)” value is “not observed”. Besides, in test [3], the “reactivity with CD3 positive T cells” value is “comparative reactivity”.

Source of the values: patent US20170096478A1, “THERAPEUTIC AGENT FOR INFLAMMATORY DISEASE” (Josai University Corporation, priority 2012, published 2017).
